Results reported in US20150160214A1, “Quantitation of Cellular Adhesion Dynamics Across Immobilized Receptors Under Rheological Shear Flow” (Mayo Foundation for Medical Education and Research, priority 2013, published 2015).

How the values were obtained:
[1] = Irreversible thermal denaturation by CD, intrinsic fluorescence and ANS fluorescence (Example 2); type: physicochemical; settings: 2° Celsius/min
Description: The unfolding of disulfide-intact A1 and RCAM A1 was also monitored via CD at 222 nm, intrinsic protein fluorescence at 280 nm/359 nm and ANS fluorescence at 350 nm/495 nm as a function of temperature.
CD thermalscans were recorded between 10 and 95° Celsius at 222 nm with a protein concentration of 1 μM in a 1 cm quartz cell under moderate stirring. Prior to each measurement protein samples were equilibrated at 10° Celsius for 10-15 min in order to obtain a stable baseline. The scanrate for all Thermalscans was 2° Celsius/min. The integration time for each data point was 20 s, the bandwidth 1 nm. All measured CD data were converted into mean molar ellipticities per amino acid residue.
Thermalscans monitoring protein fluorescence were recorded at an emission wavelength of 359 nm after excitation at 280 nm using a protein concentration of 2 μM in a 1 cm quartz cell under moderate stirring. ANS-Thermalscans were recorded at 495 nm after Excitation at 350 nm using 1 μM protein and 100 μM ANS. Prior to any performed thermalscan samples were equilibrated for 10-15 min. The scanrate was 2° Celsius/min. At each temperature between 10 or 20° Celsius and 95° Celsius relative fluorescence intensity was collected for 4 s and averaged.

platelet GPIbα = molecular target: T1, platelet GPIbα (Homo sapiens, UniProt P07359); assay: Platelet adhesion to surface captured disulfide-intact A1 and RCAM A1 under shear flow (Example 2); type: cell-based
T1 construct: endogenous in cells; host or cells: platelets in citrated whole blood of normal healthy volunteer donors
Description: The interaction of disulfide-intact A1 and of RCAM A1 with platelets was studied by immobilizing the proteins via the 6×His-Tag on Cellix biochips in which the internal channel surface was coated with a Cu2+ chelating chemistry. A 5 μM concentration of protein was immobilized in the biochip and citrated whole blood was perfused at a shear rate of 800 s−1 (FIG. 11B). This perfusion was followed by TBS buffer and after red blood cells cleared the channel, the shear was decremented to 100 s−1 or incremented to 9000 s−1 every two minutes at logarithmic intervals. Surface bound platelets were allowed to equilibrate at a given shear rate for 50 s and a 60 s video at 24 frames per second was recorded and analyzed as described in the methods. The internal channel surface lacking immobilized A1 domain was completely inert to platelets.
At each shear rate, platelet mean pause times and mean translocation velocities were calculated from the X-Y trajectories of moving platelets as described in the methods. Approximately 1000 platelet trajectories were analyzed at each shear rate (FIGS. 11B to 11D). The mean pause times were also calculated from the pause time survival fraction obtained from the cumulative integral of the pause time distribution (FIG. 11B) (Thomas:2006). The survival fraction exponentially decreases with faster decay rates as shear increases. Fitting the survival fraction with a bi-exponential decay function results in the apparent rate constants and amplitudes as a function of shear rate (FIG. 11C).
The determination and analysis of platelet pause times and instantaneous translocation velocities over surface captured A1 and RCAM A1 was performed as previously described (Tischer:2013). Here, the inventor used the Cellix Mims Evo syringe pump controlled by VenaFluxAssay (www.cellixltd.com). Vena8™ CGS biochips were custom designed with 800 μm width by 80 μm height microchannels bonded to glass slides with a Cu^2+ chelated PEG surface serviced by Microsurfaces Inc. (www.proteinslides.com/histag.html) to which the A1 and RCAM A1 in TBS were captured by the 6×His-Tag at a total concentration of 5 μM. Citrated whole blood was obtained from the informed consent of healthy volunteer donors with approval from the Mayo Clinic Institutional Review Board and 100 μL was perfused over the surface captured A1 domains at […]. The shear was increased or decreased in a stepwise manner to measure the dynamics of platelet adhesion at high and low shear. After allowing the flow chamber to equilibrate for 50 s at each shear rate, 1 min movies were recorded at 24 frames per second in phase contrast at 200× magnification with 2×2 pixel binning on a Zeiss AxioCam Mrm camera (6.45 μm/px) attached to a Zeiss Axio Observer.D1 inverted microscope. Tracking analysis was performed using MediaCybernetics ImagePro® Premier (www.mediacy.com/index.aspx?page=IP\_Premier) The distance travelled in the direction of flow was calculated from the coordinate data for each platelet as a function of time using √{square root over ((xt−x0)^2)}, where x0 is the coordinates of a platelet on the first frame of the movie and xt is the coordinate on subsequent frames of the movie. These trajectories were differentiated into instantaneous velocities using a Savitzky-Golay algorithm (Savitzky:1964) with a five data point window size and a second order polynomial implemented into a Mathematica (www.wolfram.com/mathematica) notebook written in our lab. Trajectories were retained for statistical analysis if the platelet was present for ≧1 s and travelled a total distance greater than 1 Distance travelled in pixels (px) was converted to (μm) using 6.45 μm/px*2/200=0.0645 μm/px. Pause times were determined by the amount of time (sec) a platelets velocity was 0±4 px/s≅0±0.23 μm/s, within the noise. Data are reported as mean velocities and pause times attained by individual platelets averaged over all platelets analyzed. […]

[2] = GdnHCl- and urea-induced unfolding at 25° C. by circular dichroism (Example 2); type: physicochemical; settings: CD
Description: The thermodynamic stability of A1 and of RCAM A1 was determined from GdnHCl and urea induced unfolding measured via CD and FL at 25° Celsius (FIG. 14). […] Complete unfolding of A1 and of RCAM A1 occurs in GdnHCl but not in urea. However, in presence of urea, a small expansion of RCAM A1 compared to A1 in its intermediate state is observed.
Urea and GdnHCl induced unfolding of A1 and of RCAM A1 at 25° Celsius was monitored via CD at 222 nm on an Aviv Biomedical Model 420C circular dichroism spectrometer. A 1 mm quartz cuvette and protein concentrations of 5 or 10 μM were used. Samples were equilibrated in their urea or GdnHCl containing buffer at 25° Celsius overnight. CD-signal was averaged for 5 to 10 min using an integration time of 1 s. CD-spectra were measured at 20° Celsius using 0.1 or 1 mm quartz cells with a step width of 1 nm between 190 and 260 nm with an integration time of 20 s and a bandwidth of 1 nm. CD-spectra in the near UV range (260-360 nm) were recorded using a 5 cm quartz cell with a 120 s integration time. Transition curves and protein spectra were corrected for the CD Signal of the corresponding buffer.

A1-1238: Recombinant human vWF A1 domain, amino acids Q1238-P1471, with N-terminal 6×His-Tag, disulfide intact
T* ([1]; ANS Fluorescence): 64.4 °C | ΔH* ([1]; ANS Fluorescence): 63.8 kcal/mol | T* ([1]; Circular Dichroism): 65 °C | ΔH* ([1]; Circular Dichroism): 65 kcal/mol | T* ([1]; Intrinsic Fluorescence): 63 °C | ΔH* ([1]; Intrinsic Fluorescence): 60.7 kcal/mol | Shear rate at which platelets detach from the surface immobilized domain (platelet GPIbα; listed as A1): less than 300 s−1 | Shear rate at which platelets detach from the surface immobilized domain (platelet GPIbα; listed as disulfide-intact A1): ≤ 300 s⁻¹ | Mean platelet pause time (platelet GPIbα; shear rate 530 s−1): ~0.75 s | Mean platelet pause time (platelet GPIbα; shear rate 1025 s−1): ~0.9 s | cm, I ⇄ D ([2]; GdnHCl): 4.40 ± 0.02 M | cm, N ⇄ I ([2]; GdnHCl): 0.819 ± 0.006 M | m-value, I ⇄ D ([2]; GdnHCl): −6.66 ± 0.30 kJ/mol/M | m-value, N ⇄ I ([2]; GdnHCl): −18.67 ± 0.76 kJ/mol/M | ΔG^0, I ⇄ D ([2]; GdnHCl): 7.003 ± 0.315 kcal/mol | ΔG^0, N ⇄ I ([2]; GdnHCl): 3.654 ± 0.151 kcal/mol | cm, I ⇄ D ([2]; Urea): 10.03 ± 0.19 M | cm, N ⇄ I ([2]; Urea): 2.85 ± 0.02 M | m-value, I ⇄ D ([2]; Urea): −3.35 ± 0.62 kJ/mol/M | m-value, N ⇄ I ([2]; Urea): −4.70 ± 0.17 kJ/mol/M | ΔG^0, I ⇄ D ([2]; Urea): 8.03 ± 1.49 kcal/mol | ΔG^0, N ⇄ I ([2]; Urea): 3.203 ± 0.117 kcal/mol
